Experimental findings from paper PMC10551896, “Methylation of the transcription factor E2F1 by SETD6 regulates SETD6 expression via a positive feedback mechanism” (The Journal of Biological Chemistry, 2023) are described below.

This assay has as its target T1, recombinant glutathione-S-transferase (GST)-tagged SETD6 (UniProt Q8TBK2 1-473).
T1 construct: SET domain-containing protein 6 (SETD6), a 53 kDa protein lysine methyltransferase; also called GST-SETD6; GST SETD6
T1 sequence (looked up): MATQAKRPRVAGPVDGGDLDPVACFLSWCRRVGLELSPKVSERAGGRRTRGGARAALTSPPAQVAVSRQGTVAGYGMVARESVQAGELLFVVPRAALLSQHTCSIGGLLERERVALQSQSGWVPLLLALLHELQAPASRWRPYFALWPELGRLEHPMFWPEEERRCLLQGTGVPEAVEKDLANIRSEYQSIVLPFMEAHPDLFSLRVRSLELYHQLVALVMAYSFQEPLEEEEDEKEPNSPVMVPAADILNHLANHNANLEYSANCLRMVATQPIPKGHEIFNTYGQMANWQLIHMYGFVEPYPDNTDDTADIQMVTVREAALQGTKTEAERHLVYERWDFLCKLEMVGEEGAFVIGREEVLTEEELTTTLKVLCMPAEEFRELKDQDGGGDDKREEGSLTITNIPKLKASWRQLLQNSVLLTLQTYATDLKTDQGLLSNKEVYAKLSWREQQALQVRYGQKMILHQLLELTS
As to the kind of experiment: ELISA; His-SUMO-E2F1 (2 ug) in PBS immobilised on a 96-well plate, 1 h room temperature, blocked with 3% BSA; 0.5 ug GST-SETD6 in 1% BSA in PBS and Tween-20 for 1 h at room temperature; detected with anti-GST and HRP-conjugated secondary antibody, absorbance at 450 nm. The following applies: both partners purified. Background: An ELISA detects its analyte on a solid surface through an enzyme-linked reagent.

B1: recombinant His-SUMO-E2F1 (natural protein)
chain: not shown
notes: the same insert was cloned into pET-SUMO and pGEX-6p1; also called His-SUMO-E2F1 WT; source: E. coli Rosetta, purified (nickel-nitrilotriacetic acid beads or HisTrap column)
For the molecule B1, the binding result is reported as “binds”.
